Target: T1, original peptide (Trichinella spiralis paramyosin-derived tetradecapeptide, …) (Trichinella spiralis)
T1 construct: also called Ts-pmy-derived peptide; original Ts-Pmy-derived peptide; source: synthetic peptide (solid-phase synthesis, GL Biochem; RP-HPLC purified up to 95%)
Assay: MST
Details: both partners purified

T1 sequence (P02748 22-559): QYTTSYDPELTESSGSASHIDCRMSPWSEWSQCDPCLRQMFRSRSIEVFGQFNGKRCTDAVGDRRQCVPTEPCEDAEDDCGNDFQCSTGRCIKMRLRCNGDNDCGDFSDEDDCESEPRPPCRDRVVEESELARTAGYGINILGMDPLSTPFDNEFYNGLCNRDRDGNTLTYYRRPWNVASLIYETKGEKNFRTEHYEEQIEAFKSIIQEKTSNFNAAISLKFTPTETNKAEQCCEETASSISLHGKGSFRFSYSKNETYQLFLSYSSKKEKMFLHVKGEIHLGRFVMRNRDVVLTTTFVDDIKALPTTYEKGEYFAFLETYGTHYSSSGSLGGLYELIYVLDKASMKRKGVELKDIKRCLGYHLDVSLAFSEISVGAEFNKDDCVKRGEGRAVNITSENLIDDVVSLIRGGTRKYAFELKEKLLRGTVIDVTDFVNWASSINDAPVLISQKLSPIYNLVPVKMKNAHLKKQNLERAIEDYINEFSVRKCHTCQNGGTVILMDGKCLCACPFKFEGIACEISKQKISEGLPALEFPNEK

B1: human complement component C9 (natural protein)
chain: not shown
modifications: fluorescent probe NT-647 bound covalently (in the MST assay)
notes: also called human C9
binding result: binds

— paper PMC7785802, “Therapeutic Efficacy of a Trichinella Spiralis Paramyosin-Derived Peptide Modified With a Membrane-Targeting Signal in Mice With Antigen-Induced Arthritis” (Frontiers in Microbiology, 2020)
